According to patent US9089565B2, “Compositions and methods for causing neurite outgrowth” (MEDICAL RESEARCH COUNCIL, priority 2009, dated 2015):
Blank lines part the entries; values can stand above or below the molecule they belong to.

Tests used:
NgR1 = molecular target: T1, NgR1 (Homo sapiens, UniProt Q9BZR6); assay: Binding of Nogo-66 fragment (Nogo-GFP) to COS7 cells over-expressing NgR1; conditions: wild type NgR1
T1 construct: The cDNAs of NgR1 (NM 023004, Nt. 184-1543); expressed in transfected cells; host or cells: COS7
T1 sequence (Q9BZR6 27-447): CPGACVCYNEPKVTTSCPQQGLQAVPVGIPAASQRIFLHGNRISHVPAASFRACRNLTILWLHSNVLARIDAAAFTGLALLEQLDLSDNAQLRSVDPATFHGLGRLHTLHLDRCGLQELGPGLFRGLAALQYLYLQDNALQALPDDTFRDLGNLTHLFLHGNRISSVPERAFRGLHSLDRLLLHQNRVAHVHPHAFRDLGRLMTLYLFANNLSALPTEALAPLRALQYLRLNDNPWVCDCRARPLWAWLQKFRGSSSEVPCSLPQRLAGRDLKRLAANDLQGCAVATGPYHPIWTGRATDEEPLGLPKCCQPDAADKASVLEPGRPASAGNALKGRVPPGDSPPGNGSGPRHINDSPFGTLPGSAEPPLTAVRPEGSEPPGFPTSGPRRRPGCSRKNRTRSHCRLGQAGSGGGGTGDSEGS
Protocol: FIG. 3. CK2 phosphorylates NgR1, and inhibits binding of the myelin-associated proteins to NgR1. (A) Myc-tagged wild type, 281S/A or 281S/D mutant NgR1 were over-expressed in COS7 cells. The over-expressed cells were incubated with either the combination of ATP and CK2, or NEP1-40 for 30 min at 37° C. After washing with PBS, cells were incubated with Hisx6-tagged Nogo-GFP for 3 hours at 4° C. The cells were fixed and immunofluorescence was performed with anti-Myc and anti-GFP antibodies. (B) COS7 cells over-expressing Myc-tagged wild type NgR1 were treated as described in (A). Proteins were extracted and the Myc-tagged NgR1 was immunoprecipitated with anti-Myc antibody. Co-precipitated Hisx6-tagged Nogo-GFP was detected by anti-GFP antibody. (C) Cell surface proteins in NgR1-overexpressing COS7 cells were labelled with biotin. The biotinylated proteins were fractionated and analysed by SDS-PAGE. Biotinylated NgR1-Myc was detected with anti-Myc. antibody. (D) COS7 cells over-expressing either wild type NgR1-Myc or 281S/A mutant NgR1-Myc were incubated with ã-^32P-ATP in the presence or absence of CK2. Myc-tagged proteins were immunoprecipitated and analysed with SDS-PAGE. Proteins were blotted onto a PVDF membrane and the membrane was exposed to X-ray film to detect incorporated ^32P. After autoradiography, the membrane was used for immunoblotting with anti-Myc antibody. (E and F) COS7 cells over-expressing Myc-tagged wild type, 281S/A or 281S/D mutant NgR1, were treated as described in (A). After washing with PBS, cells were incubated with either His-tagged OMgp (E) or HA-tagged MAG (F) for 3 hours at 4° C. […]
After treatment with or without CK2, COS7 cells over-expressing wild type or mutant NgR were incubated with Hisx6 tagged Nogo-GFP (10 μg/ml), HA-MAG (50 μg/ml) or Hisx6 tagged OMgp (10 μg/ml) in PBS for 3 hours at 4° C. […] Biotinylated proteins were precipitated with streptavidin beads and were analysed by SDS-PAGE. Each sample fractionated from 5×10^6 cells was analysed by SDS-PAGE. […]

Nogo-A, LINGO-1 = assay: Immunoblotting of Nogo-A and LINGO-1 in RA-treated SH-SY5Y cells; type: cell-based, human; conditions: after BDNF treatment 24 hours
Protocol: FIG. 1. BDNF promotes neurite outgrowth of RA-treated SH-SY5Y, and induces phosphorylation of NgR1. (A) SH-SY5Y cells were incubated with indicated reagents. Cell images were taken with phase contrast microscopy. (B) Number of cells extending neurite-like structures of more than 40 μm and total cell number were counted from images taken in (A). More than 300 cells were examined in each sample. The proportion of cells extending neurite-like structures of more than 40 μm was indicated as a percentage of total cell number. An average of three experiments is shown. Error bars indicate S. E. between experiments. Data were analysed with student's t test. (C) Whole cell extracts were prepared from RA-treated SH-SY5Y cells after incubation with or without BDNF for 24 hours, and were analysed by SDS-PAGE. Immunoblotting was performed with the indicated antibodies. (D) Whole cell extract prepared from cells treated with both RA and BDNF was incubated with the indicated reagents for 1 hour at 37° C. […] Whole cell extracts prepared from these cells were analysed by SDS-PAGE. […]
Cells were scraped off from dishes and washed with PBS twice, and then resuspended in PBS containing 0.1% Triton X100 and phosphatase inhibitor cocktail (Roche) and EDTA-free protease inhibitor cocktail (Roche). […] The supernatants containing 30 μg of proteins were analysed by SDS-PAGE and blotted to PVDF membrane. […]

interaction of Nogo-66 fragment with over-expressed NgR1, immunoprecipitation (NgR1; ATP or CK2 alone): failed to inhibit the interaction
Molecule: Nc1ncnc2c1ncn2[C@@H]1O[C@H](COP(=O)(O)OP(=O)(O)OP(=O)(O)O)[C@@H](O)[C@H]1O [ATP]

binding of the Nogo-66 fragment, immunofluorescence (NgR1; pre-treatment 30 min (CK2 with ATP, or NEP1-40)): inhibited binding
Molecule: NEP1-40: a competitive inhibitor of Nogo-66 binding to NgR1 (MEDLDQSPLVSSSDSPPRPQPAFKYQFVREPEDEEEEEEE; Nogo-66 residues 1-40; UniProt Q9NQC3 1-40, looked up, fragment) [reference compound]

B1: BDNF: brain-derived neurotrophic factor, member of the neurotrophin nerve growth factor family, purchased from Merck (protein, UniProt P23560 19-247, looked up)
Neurotrophic factor BDNF …: APMKEANIRGQGGLAYPGVRTHGTLESVNGPKAGSRGLTSLADTFEHVIEELLDEDQKVRPNEENNKDADLYTSRVMLSSQVPLEPPLLFLLEEYKNYLDAANMSMRVRRHSDPARRGELSVCDSISEWVTAADKKTAVDMSGGTVTVLEKVPVSKGQLKQYFYETKCNPMGYTKEGCRGIDKRHWNSQCRTTQSYVRALTMDSKKRIGWRFIRIDTSCVCTLTIKRGR
Nogo-A and LINGO-1 protein levels (Nogo-A, LINGO-1): neither Nogo-A nor LINGO-1 showed significant changes
